What was measured:
[1] = target: T1, rat brain farnesyl:protein transferase (rat, UniProt Q04631 2-377; Q02293 1-437); test: cell-based or functional assay
[2] = target: T1, rat brain farnesyl:protein transferase; test: cell-based or functional assay; remark: listed apart in the source

| Binder | concentration giving 50% inhibition (farnesyl transfer to p21^H-ras) [1] [µM] | Concentration for 50% Inhibition (farnesyl transfer to p21^H-ras) [2] [µM] |
| --- | --- | --- |
| CVIE [CVIM with glutamic acid at the X position] | > 40 |  |
| CVIK [CVIM with lysine at the X position] | > 40 |  |
| CVIG [CVIM with glycine at the X position] | > 40 |  |
| CAIL |  | 100 |

Reference: patent US6632626 (dated 2003)
